Measurements taken from US20190225669A1 (ACCELERON PHARMA, published 2019).

What was measured:
TGFβ2 [1] = target: T1, TGFβ2 (human, UniProt P61812 303-414); assay: Biacore SPR; * low signal
T1 construct: Human (PeproTech) is stated for the A549 reporter assay; also called TGF-beta2
T1 sequence (looked up): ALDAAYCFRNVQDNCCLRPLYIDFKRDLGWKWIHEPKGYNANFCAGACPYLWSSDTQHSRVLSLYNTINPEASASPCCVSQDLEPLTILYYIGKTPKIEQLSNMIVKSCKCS
Protocol: (§1) The heteromeric or homomeric protein complexes were independently captured onto the system using an anti-Fc antibody. Ligands were injected and allowed to flow over the captured receptor protein.

TGFβ1 [2] = target: T2, TGFβ1 (human, UniProt P01137 279-390); assay: Biacore SPR; * low signal
T2 construct: Human (PeproTech) is stated for the A549 reporter assay; also called TGF-beta1
T2 sequence (P01137 279-390 limits assumed): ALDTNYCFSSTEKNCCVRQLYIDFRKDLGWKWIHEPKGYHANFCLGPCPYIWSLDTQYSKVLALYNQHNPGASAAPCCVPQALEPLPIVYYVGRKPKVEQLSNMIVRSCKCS
Protocol: as §1

TGFβ3 [3] = target: T3, TGFβ3 (human, UniProt P10600 301-412); assay: Biacore SPR; * low signal
T3 construct: Human (PeproTech) is stated for the A549 reporter assay; also called TGF-beta3
T3 sequence (looked up): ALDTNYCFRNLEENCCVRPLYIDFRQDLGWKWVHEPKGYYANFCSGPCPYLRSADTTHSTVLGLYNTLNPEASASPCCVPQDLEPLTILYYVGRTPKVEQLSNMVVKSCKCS
Protocol: as §1

TGFβ2 [4] = target: T1, TGFβ2; assay: cell-based or functional assay
TGFβ1 [5] = target: T2, TGFβ1; assay: cell-based or functional assay
TGFβ3 [6] = target: T3, TGFβ3; assay: cell-based or functional assay
TGFβ2 [7] = target: T1, TGFβ2; assay: Biacore SPR
BMP10 [8] = target: T4, BMP10 (UniProt O95393 317-424); assay: Biacore SPR
T4 sequence (looked up): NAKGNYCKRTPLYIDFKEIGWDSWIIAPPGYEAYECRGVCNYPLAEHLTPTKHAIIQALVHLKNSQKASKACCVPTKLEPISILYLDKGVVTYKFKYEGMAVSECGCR

BMP9 [9] = target: T5, BMP9 (UniProt Q9UK05 320-429); assay: Biacore SPR
T5 construct: also called GDF2
T5 sequence (looked up): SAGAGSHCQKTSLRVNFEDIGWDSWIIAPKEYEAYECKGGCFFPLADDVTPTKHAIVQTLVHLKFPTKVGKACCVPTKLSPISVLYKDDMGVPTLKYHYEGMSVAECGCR

GDF6 = target: T6, GDF6 (UniProt Q6KF10 336-455, limits assumed); assay: Biacore SPR; kinetics indeterminate (transient)
T6 construct: also called BMP13
T6 sequence (looked up): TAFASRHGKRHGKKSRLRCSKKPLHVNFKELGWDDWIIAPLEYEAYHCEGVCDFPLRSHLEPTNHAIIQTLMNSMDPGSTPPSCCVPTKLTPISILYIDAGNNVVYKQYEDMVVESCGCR
Protocol: (§2) Ligands were injected and allowed to flow over the captured receptor protein.

BMP7 = target: T7, BMP7 (UniProt P18075 293-431); assay: Biacore SPR
T7 sequence (looked up): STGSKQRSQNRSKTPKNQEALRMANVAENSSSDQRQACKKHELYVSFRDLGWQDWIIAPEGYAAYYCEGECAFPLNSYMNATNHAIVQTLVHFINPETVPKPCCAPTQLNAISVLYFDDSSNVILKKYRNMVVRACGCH
Protocol: as §2

GDF3 = target: T8, GDF3 (UniProt Q9NR23 251-364); assay: Biacore SPR
T8 sequence (looked up): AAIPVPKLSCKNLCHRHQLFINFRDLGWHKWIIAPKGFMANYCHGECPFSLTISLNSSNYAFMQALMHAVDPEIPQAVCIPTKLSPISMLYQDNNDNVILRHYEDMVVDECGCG
Protocol: as §2

activin A = target: T9, activin A (UniProt P08476 311-426); assay: Biacore SPR
T9 sequence (looked up): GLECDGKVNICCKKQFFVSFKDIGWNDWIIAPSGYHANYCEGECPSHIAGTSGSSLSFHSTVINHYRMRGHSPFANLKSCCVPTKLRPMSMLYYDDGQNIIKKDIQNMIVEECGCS
Protocol: as §2

BMP10 [10] = target: T4, BMP10; assay: Biacore SPR; remark: listed apart in the source
Protocol: as §2

GDF11 = target: T10, GDF11 (UniProt O95390 299-407); assay: Biacore SPR
T10 construct: also called BMP11
T10 sequence (looked up): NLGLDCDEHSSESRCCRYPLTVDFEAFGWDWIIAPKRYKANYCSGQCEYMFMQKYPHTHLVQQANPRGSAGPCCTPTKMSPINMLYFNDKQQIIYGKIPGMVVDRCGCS
Protocol: as §2

GDF5 = target: T11, GDF5 (UniProt P43026 382-501); assay: Biacore SPR
T11 construct: also called BMP14
T11 sequence (looked up): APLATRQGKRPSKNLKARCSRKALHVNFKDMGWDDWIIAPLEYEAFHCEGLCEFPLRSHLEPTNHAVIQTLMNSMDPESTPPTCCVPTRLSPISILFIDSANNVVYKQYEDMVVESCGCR
Protocol: as §2

BMP5 = target: T12, BMP5 (UniProt P22003 317-454, limits assumed); assay: Biacore SPR
T12 sequence (looked up): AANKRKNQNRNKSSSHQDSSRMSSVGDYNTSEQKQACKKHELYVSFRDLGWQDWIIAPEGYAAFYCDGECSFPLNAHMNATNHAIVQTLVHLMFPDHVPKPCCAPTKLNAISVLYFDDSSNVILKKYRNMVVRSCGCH
Protocol: as §2

GDF8 = target: T13, GDF8 (UniProt O14793 267-375); assay: Biacore SPR
T13 construct: also called myostatin
T13 sequence (looked up): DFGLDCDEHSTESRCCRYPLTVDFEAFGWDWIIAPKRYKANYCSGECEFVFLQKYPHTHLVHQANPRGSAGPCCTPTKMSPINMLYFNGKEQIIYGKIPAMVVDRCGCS
Protocol: as §2

activin B = target: T14, activin B (UniProt P09529 293-407); assay: Biacore SPR
T14 sequence (looked up): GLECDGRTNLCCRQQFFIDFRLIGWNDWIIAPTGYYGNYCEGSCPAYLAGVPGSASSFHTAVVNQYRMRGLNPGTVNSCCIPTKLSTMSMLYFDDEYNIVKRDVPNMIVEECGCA
Protocol: as §2

BMP9 [11] = target: T5, BMP9; assay: Biacore SPR; remark: listed apart in the source
Protocol: as §2

B1: TGFβRIILONG-Fc:ALK5-Fc heterodimer (Fc fusion)
chain 1: TIPPHVQKSDVEMEAQKDEIICPSCNRTAHPLRHINNDMIVTDNNGAVKFPQLCKFCDVRFSTCDNQKSCMSNCSITSICEKPQEVCVAVWRKNDENITLETVCHDPKLPYHDFILEDAASPKCIMKEKKKPGETFFMCSCSSDECNDNIIFSEEYNTSNPDTGGGTHTCPPCPAPELLGGPSVFLFPPKPKDTLMISRTPEVTCVVVDVSHEDPEVKFNWYVDGVEVHNAKTKPREEQYNSTYRVVSVLTVLHQDWLNGKEYKCKVSNKALPAPIEKTISKAKGQPREPQVYTLPPSRKEMTKNQVSLTCLVKGFYPSDIAVEWESNGQPENNYKTTPPVLKSDGSFFLYSKLTVDKSRWQQGNVFSCSVMHEALHNHYTQKSLSLSPGK
chain 2: ALLPGATALQCFCHLCTKDNFTCVTDGLCFVSVTETTDKVIHNSMCIAEIDLIPRDRPFVCAPSSKTGSVTTTYCCNQDHCNKIELPTTVKSSPGLGPVETGGGTHTCPPCPAPELLGGPSVFLFPPKPKDTLMISRTPEVTCVVVDVSHEDPEVKFNWYVDGVEVHNAKTKPREEQYNSTYRVVSVLTVLHQDWLNGKEYKCKVSNKALPAPIEKTISKAKGQPREPQVYTLPPSREEMTKNQVSLTCLVKGFYPSDIAVEWESNGQPENNYDTTPPVLDSDGSFFLYSDLTVDKSRWQQGNVFSCSVMHEALHNHYTQKSLSLSPG
notes: also called TGFβRII-Fc:ALK5-Fc heterodimer (long isoform)
Kd (TGFβ2 [1]): 0.07 pM | koff (TGFβ2 [1]): 2.8e-07 s⁻¹ | kon (TGFβ2 [1]): 4.2e+06 M⁻¹ s⁻¹ | Kd (TGFβ1 [2]): 14 pM | koff (TGFβ1 [2]): 0.00092 s⁻¹ | kon (TGFβ1 [2]): 6.6e+07 M⁻¹ s⁻¹ | Kd (TGFβ3 [3]): 38 pM | koff (TGFβ3 [3]): 0.001 s⁻¹ | kon (TGFβ3 [3]): 2.7e+07 M⁻¹ s⁻¹ | IC50 (pM), CAGA12-luciferase reporter gene assay in A549 cells, TGFβ2 at 480 pg/mL (TGFβ2 [4]): 154 pM | IC50 (pM), CAGA12-luciferase reporter gene assay in A549 cells, TGFβ1 at 640 pg/mL (TGFβ1 [5]): 204 pM | IC50 (pM), CAGA12-luciferase reporter gene assay in A549 cells, TGFβ3 at 270 pg/mL (TGFβ3 [6]): 35 pM | affinity ratio against TGFβRII-Fc homodimer (TGFβ2 [7]): ~100000 fold | off-rate ratio against TGFβRII-Fc homodimer (TGFβ2 [7]): ~10000 fold | binding result (BMP10 [8]): no binding | binding result (BMP9 [9]): no binding

B2: ActRIIB-Fc:ALK2-Fc heterodimer (Fc fusion)
chain 1: GRGEAETRECIYYNANWELERTNQSGLERCEGEQDKRLHCYASWRNSSGTIELVKKGCWLDDFNCYDRQECVATEENPQVYFCCCEGNFCNERFTHLPEAGGPEVTYEPPPTAPTGGGTHTCPPCPAPELLGGPSVFLFPPKPKDTLMISRTPEVTCVVVDVSHEDPEVKFNWYVDGVEVHNAKTKPREEQYNSTYRVVSVLTVLHQDWLNGKEYKCKVSNKALPAPIEKTISKAKGQPREPQVYTLPPSRKEMTKNQVSLTCLVKGFYPSDIAVEWESNGQPENNYKTTPPVLKSDGSFFLYSKLTVDKSRWQQGNVFSCSVMHEALHNHYTQKSLSLSPGK
chain 2: MEDEKPKVNPKLYMCVCEGLSCGNEDHCEGQQCFSSLSINDGFHVYQKGCFQVYEQGKMTCKTPPSPGQAVECCQGDWCNRNITAQLPTKGKSFPGTQNFHLETGGGTHTCPPCPAPELLGGPSVFLFPPKPKDTLMISRTPEVTCVVVDVSHEDPEVKFNWYVDGVEVHNAKTKPREEQYNSTYRVVSVLTVLHQDWLNGKEYKCKVSNKALPAPIEKTISKAKGQPREPQVYTLPPSREEMTKNQVSLTCLVKGFYPSDIAVEWESNGQPENNYDTTPPVLDSDGSFFLYSDLTVDKSRWQQGNVFSCSVMHEALHNHYTQKSLSLSPG
notes: C-terminal Lys optional; also called ActRIIB-Fc:ALK2-Fc heterodimeric complex
Kd (GDF6): > 240000 pM | Kd (BMP7): 170 pM | koff (BMP7): 0.0026 s⁻¹ | kon (BMP7): 1.5e+07 M⁻¹ s⁻¹ | Kd (GDF3): 6500 pM | koff (GDF3): 0.012 s⁻¹ | kon (GDF3): 1.8e+06 M⁻¹ s⁻¹ | Kd (activin A): 76 pM | koff (activin A): 0.0026 s⁻¹ | kon (activin A): 3.4e+07 M⁻¹ s⁻¹ | Kd (BMP10 [10]): 53 pM | koff (BMP10 [10]): 0.0029 s⁻¹ | kon (BMP10 [10]): 5.5e+07 M⁻¹ s⁻¹ | Kd (GDF11): 600 pM | koff (GDF11): 0.00093 s⁻¹ | kon (GDF11): 1.6e+06 M⁻¹ s⁻¹ | Kd (GDF5): 5000 pM | koff (GDF5): 0.0044 s⁻¹ | kon (GDF5): 880000 M⁻¹ s⁻¹ | Kd (BMP5): 1200 pM | koff (BMP5): 0.0014 s⁻¹ | kon (BMP5): 1.2e+06 M⁻¹ s⁻¹ | Kd (GDF8): 360 pM | koff (GDF8): 0.00073 s⁻¹ | kon (GDF8): 2.1e+06 M⁻¹ s⁻¹ | Kd (activin B): 47 pM | koff (activin B): 0.00015 s⁻¹ | kon (activin B): 3.2e+06 M⁻¹ s⁻¹ | Kd (BMP9 [11]): 280 pM | koff (BMP9 [11]): 0.00089 s⁻¹ | kon (BMP9 [11]): 3.2e+06 M⁻¹ s⁻¹
